Data published in the DeepSol protein solubility set.

Experiment: soluble on expression in E. coli; label from the status in PepcDB or PDB records

| Sequence | soluble on expression in E. coli |
| --- | --- |
| MIKWPWKAQEITQNEDWPWDDALAIPLLVNLTAQEQARLIALAERFLQQKRLVALQGFELDSLKSARIALIFCLPILELGIEWLDGFHEVLIYPAPFVVDDEWEDDIGLVHSQRVVQSGQSWQQGPIILNWLDIQDSFDASGFNLIIHEVAHKLDMRNGDRASGIPFIPLRDVAGWEHDLHAAMNNIQDEIDLVGESAASIDAYAATDPAECFAVLSEYFFSAPELFAPRFPALWQRFCQFYRQDPSQRLRVSAAEGDYGEESEH | not soluble |
| MAKSEEIIRERYKVMAPRIIKALNQRNFEAYFCETSEKAVECALSLIPQGASVAWGGSMTLEEIGLIQRLKEGNYQVIDRDTAKSQEERFSLMRQALLSDVYLASVNAMSEDGIMVNIDGRGNRISAIAFGPKTVILVVGMNKICRDLESARKRAHTYAAPNNALRLGLELPCTKTGCCFDCNKNNPSSICAQIVEMHSSIVPGRIKVILVGENLGL | soluble |
| MSKILGDGHVRKTVDLPDSALRLNYEKKYYEPENGDHLIFSAQLQNGRYSALTAIKPTDLLQVYGSLSYLDEQLKFGHVSIHGRTAKVFVPFSTRTTNGACWYGQGAYIDKPYLIYIFRQEEAHGCKFVAWAIYDDTRKTTSVPPTPTDIQNTSHMKKLGPPTAVQRQSDHQSVEFVQAQSGVIYDISDNYVISVTSPTCQNVEFAPTLYESWMRPGRFITFDGRRVSDVKTSKLMGSNPEDMGSIYPIRKLTPLTITISAIMNKVSHGKAGWAWNDHVGRIYIPWNSTDRYMQASKPLPFTPVHLEIAYNGKHDDIPWVACGSSLVEEQEYDQIVDENSRMLKTEDNWKIQSVVDGPENPSIFLAKFDEKGLKRTAFAKVIDLNSGNIPPTGTLVRITYYAQERHGRHAMRCVLVTTMEKVERFPKVHSIINGSGEKHFPMMYEQPIPKKQVIPPTPVQRVQAAPPPAKNCWNLKNLGSPAAQPSVQDFPTVTGDEDDNIFVEETNTALPPPGFVPPGLVAPPGLPPPPGLPAVPLSTDLAYDFKMTSSIPMTNGLGHLRLGSVWSGTPVEAKQEEPLHYFQQQDNFLGSSFGPISSTFSADNFFTELTASISQPSTSSVVNSGPISDLRNTQSEASSPGLKSDGNEPVEETNCWSSLEAATNGNNPFNSSFSYGFPHMDLPIYQKMMPNANDILKPMPLVEEELKPATSATHSEADSCTCGTEQLIWDLWQNPHFIAAFAASDPETFKRVDAKRKLFSLSNHR | not soluble |
| MGSDKIHHHHHHMATSQERLGMNLKKCIQRLRKVANRGPSHKARLENIDEKIVVTGTRGKSGATRWLYEILYGRGRDAFAKITGNRPLVLHDGESHPIERGRRVTLYENEAQLRQYAPVETAIFENQAIGEYTTRTVHQRFTDPDVIFLTNIRSDHLDWLGDTPTQIARSFARTIPDGVTLVVGEQRPTLRAMLKRELEETDVQIRWVLVPKALQNVPGAETILGLNDVLEALGEQPLSDRQIEAYIDEMQVRWTTLADGRVYNAASVNDIDSTEIVRRALDDNDVDTIQPLIYLRPDRRARTASFLSYLDGLYSDDVFEVTHAVGPHAELFDNQASFPVATHDASKSASAVLDAALSPGWPVFIMGNTVADFMRDLEAEIEARRVDSSQGMPEKSTSANEKRAIERPQ | not soluble |
| MHHPPVEELELIDSPAALEWAREWSQATQERWSNDALQRSIREALDTDARIPYVTRRGEYLYNFWRDRDHPRGVWRRTTLESFTSDSPQWQVLIDVDRLAASEEESWVWKGAHVRPHHFDRALIRLSRGGADAVEIREFDLDSGSFVEDHAFAVPEAKTQVCWVDRDTVLVGTDMGAGSLTESGYPARVHVWRRGTNLAEAEEFFCGLSSDLAVSAWAETVPGFERLFVRRALDFYRSRTFIQRDGHLQIIEVPEDCTVVVHREWMYVLPREEYAGIASGGVGAILFEDF | not soluble |
| MGSDKIHHHHHHMAEDQTVLAIDIGGSHVKIGLSTDGEERKVESGKTMTGPEMVAAVTAMAKDMTYDVIAMGYPGPVVHNKPLREPVNLGEGWVGYDYEGAFGRPVRIVNDALMQAIGSYNGGRMLFLGLGTGLGAAMIVENVAQPMEIAHLPYRKGKTYEHYVSEAYREKKGNAKWQKRVQDVVERLSAALEPDEVVIGGGNVERLENLPPKCRRGDNAMAFEGGFRLWKNADLIV | not soluble |
| GSHMSKSDVFHLGLTKNDLQGATLAIVPGDPDRVEKIAALMDKPVKLASHREFTTWRAELDGKPVIVCSTGIGGPSTSIAVEELAQLGIRTFLRIGTTGAIQPHINVGDVLVTTASVRLDGASLHFAPLEFPAVADFECTTALVEAAKSIGATTHVGVTASSDTFYPGQERYDTYSGRVVRHFKGSMEEWQAMGVMNYEMESATLLTMCASQGLRAGMVAGVIVNRTQQEIPNAETMKQTESHAVKIVVEAARRLL | soluble |
| MGSDKIHHHHHHMNDPLDPLPSLNALRAFEAASRHLNFRLAAGELGVTQGAVAQHVRGLESSIGLVLFERRPRALVLTENGRSYAASVRRAFDLLVEATQALRPQPLQLTISVTPTFAAKWLIPRLQDFTAAHPEIDLRIIATDRLSHFQTDAIDLAVRYGQPPFGVGLNAECLFESVLVAVGSPRLANELRSSGAARFFARYPLLHDAHNQWPPFLQEVLKQSAAIGEKNIRFNQTSLAIDAAMAGQGIALAPFAFVGRAIAMGGLSRIFDVELRTGSGFYVVTPRRLRHPGPVAAVRGWLLKQGREQMCD | not soluble |
| ASQPLIQDPVLIEYINHLGNSLVKNAQGVNYAFEFFLINNNELNAFAFFGGHVGIHSGLITTADTESELASVIAHEISHVTQRHLARRLESQSQTQGLTMAAMLSSVLITLVNPTVGIAALSASMAVTQQASINYTRGNEKEADRVGIALLASSNYDPQGAASFFSKMSTKYRYASKPPAMLLTHPLPESRIADARQRALNYPARPLPPSLGFELTKARLKSRYQGEAKSNISFFKLQLEKKRYAIKAAAQYGLALSYFENKQTSEALQLLEMLEKNDKDNLFYVDALTDVYIANNQANKAIKMLERLNLFMPNNQVVSLNYANALLSVKEYDLAAQILQDFLLVNPGNFIAYDILTTLYRTQEKTGLMHMSKAEVYALLGAYPKAVDELQTSYAFLDEQPLMQK | not soluble |
| MTIAKDYRTIYRNQIKKQIRLNQEHLQSLTHLGSQINFEVDPPKLPDPDPARKVFFFDIDNTLYRKSTKVQLLMQQSLSNFFKYELGFDDDEAERLIESYYQEYGLSVKGLIKNKQIDDVLQYNTFIDDSLPLQDYLKPDWKLRELLINLKKKKLGKFDKLWLFTNSYKNHAIRCVKILGIADLFDGITYCHYDRPIEEEFICKPDPKFFETAKLQSGLSSFANAWFIDDNESNVRSALSMGMGHVIHLIEDYQYESENIVTKDHKNKQQFSILKDILEIPLIMDVEVYRPSSIAIKEMEELEEEGEAVNWSNQQINVQSS | soluble |
| AIASAADDVNKKRKTAKEVEQEECEIYQNVVFNSIVDSNSKHELVDPSLQKLGAKSRGKVTFLLEQASLELVKIDRKWEILNGDEHQQYMKRKNLNPADYRPDIVHQCVLSLLDSPLNKAGYLDLYIHTTNNVLIKVNPQTRIPRTLKRFCGLTVQLLQDLKIFGHGLNKPLLQIIQNPITNHLPDMCWKTVCSYNCENLMSPHKHAQEVLKKDMNILYVIGAMAHGKIVEEWADEELKISSFPLSASAVCHRICSAYEILYEVL | soluble |
| MARVVVDAQAARAIGKGAMIVFKKGVVRVEGDIKPGDIVEVYTRGGKFLGKGFANPNSNIMVRIVTKDKDVEINKDLFKRRIKKANEYRKKVLKYTNVYRMVYGEADYLPGLIVDRFNDIASLQISSAGMERFKLDVAEAIMEVEPGIETVFEKNTGRSRRREGLPEIERVLLGKEKYRTIIQEGRAKFIVDMRGQKTGFFLDQRENRLALEKWVQPGDRVLDVFTYTGGFAIHAAIAGADEVIGIDKSPRAIETAKENAKLNGVEDRMKFIVGSAFEEMEKLQKKGEKFDIVVLDPPAFVQHEKDLKAGLRAYFNVNFAGLNLVKDGGILVTCSCSQHVDLQMFKDMIIAAGAKAGKFLKMLEPYRTQAPDHPILMASKDTEYLKCLFLYVEDMR | soluble |
| AATSRTERIWPGGVIPYVIGGNFTGSQRAMFKQAMRHWEKHTCVTFIERSDEESYIVFTYRPCGCCSYVGRRGNGPQAISIGKNCDKFGIVVHELGHVIGFWHEHTRPDRDNHVTIIRENIQPGQEYNFLKMEPGEVNSLGERYDFDSIMHYARNTFSRGMFLDTILPSRDDNGIRPAIGQRTRLSKGDIAQARKLYRCPA | soluble |
| SNAMITKAIYPGTFDPITNGHLDLVTRASAMFSHVILAIADSSSKKPMFTLDERVALAKKVTAPLKNVEVLGFSELMAEFAKKHNANILVRGLRSVSDFEYEWQLANMNRHLMPKLESVFLIPSEKWSFISSSLVKEVARHGGDITPFLPKPVTKALLAKLA | soluble |
| MGSDKIHHHHHHMVKRKNVAVIGGGVSGLAAAKAFDERGHRVTGFERSHDFGGVWELSRSYPDVQTQSPKDLYCYTDLPMPDAYPEWPKGPQVHAYLHSYANKHNLPRLFQLNTNILSMDRRADGQPGWTLTIEAAGRVRKEDFDFVAICTGQFSDKNILTHPGQEAFVAGGGEVIHSSEYTDSEMARGKHVVVLGGSKSATDIVVNAARSGAKSVTMVYRENVWRVPYFVGGINFKRLLYMRAQEQQFNQWGKSPLQRVIAALLKPLVWANFRGLETLLKAQLGLKKWNMVPDTPIEKEASCSLPIVTPGLFESFRDGTVKPIQGTYDRYEDGHVVLTTGDRVPCDLSVLAVGWKLGIPYLAQEYRDKLIEADGQYRVYRLAVNPDLPDMGFVGFNSSFCTILSAEMIANWLVRFADGQLAHQPSAQEMNANIEMMLNWRRKERPAAQVYGGLCSAPFHFKHFDELLADMGAGVRKRANPLAEQFSYPDARAYGRFLASTPQYQAG | not soluble |
| MEVKALAHAKNDSVAVATDDLKEGEEIQVAFLDNNEKTKITTAEVIPLGHKISLKDIKKGENVIEYGEVIGAATKDIKRGEHVHIHNIKSLRW | not soluble |
| MDHQFGYGVEVTGLSPSVTHNDLIDFFSFSGTIQDIDIVRSGEQACTAYVMFKDSYSQETAVLLTGATILDQRVCITRWGQHHEEFDFWNATSRGFEDESDSQHYAQRSEFNAGEAVTKAQEVVKIMLATGFVLGKDALSKAKAFDESHGVSAAAVARVSQLEQRIGLTDKIFTGLEAVRMTDQRYHVSDTAKSAVFATGRTAAAAATSVVNSSYFSSGALWLSGALERAAKAASDLGTRGSRQ | soluble |
| MSEFLPFSRPAMGVEELAAVKEVLESGWITTGPKNQALEQAFCQLTGNQHAIAVSSATAGMHITLMALKIGKGDEVITPSLTWVSTLNMISLLGATPVMVDVDRDTLMVTPEAIESAITPRTKAIIPVHYAGAPADIDAIRAIGERYGIAVIEDAAHAVGTYYKGRHIGAKGTAIFSFHAIKNITCAEGGLIVTDNENLARQLRMLKFHGLGVDAYDRQTWGRAPQAEVLTPGYKYNLTDINAAIALTQLVKLEHLNTRRREIAQQYQQALAALPFQPLSLPAWPHVHAWHLFIIRVDEQRCGISRDALMEALKERGIGTGLHFRAAHTQKYYRERFPTLSLPNTEWNSERICSLPLFPDMTTADADHVITALQQLAGQ | soluble |
| MSLKLNWDKAIDKAIKRYGLRVEPQLISYFSKAGVSYPPKEIALLAFKSERKVELWAKNPSQEWTHIHDYPLTGFSGRLGPKLRENDKQIPEGIYKLVNFNPFSSMHLSMMINYPNSFDRQKGYMDGRKELGNNIFIHGKNLSVGCLAVGDLAIDQLFILARRVGLKNIQVIIAPNDLRYQKPSTSTFAQPRWLPELYKQITESLKPFKKTKFTAEGHHHHHH | soluble |
| METLGVQTNSELREELNRLKEENARLKKELNQHQVIVNNTLDAIFICDNEMRIVQANEATERMLQVDSEDLKKRSVLDFLFSIPKDELNLSVKKFFKKGFLWKEVPIRLDCGATKYIEFLAKRGIGEDFFFVVMRDIS | not soluble |
